Test results as given in patent US20240383982A1 (Genmab, published 2024).

Experiments:
[1] = molecular target: T1, recombinant hIgG1 Fc-tagged cynomolgus monkey B7H4 (Creative BioMart, cat. no. VTCN1-1517R) (cynomolgus monkey, UniProt Q7Z7D3 25-259 (human entry)); experiment: BLI (Octet HTX); Fc-tagged cynomolgus B7H4 coupled to AR2G sensor, bispecific antibody in solution (monovalent B7H4 binding); 1st experiment
T1 construct: Bought protein; also called cynomolgus monkey B7H4 extracellular domain
T1 sequence: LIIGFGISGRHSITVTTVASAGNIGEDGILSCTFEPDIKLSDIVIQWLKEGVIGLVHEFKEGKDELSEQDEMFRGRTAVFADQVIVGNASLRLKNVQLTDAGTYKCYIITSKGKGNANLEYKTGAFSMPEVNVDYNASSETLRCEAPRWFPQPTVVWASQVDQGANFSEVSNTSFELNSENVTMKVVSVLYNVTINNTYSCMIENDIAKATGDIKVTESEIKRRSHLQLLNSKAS
Method: In addition, the affinity of for cynomolgus monkey B7H4 was determined by BLI. […] Amine Reactive 2nd Generation (AR2G) biosensors (FortéBio, cat. no. 18-5092) were activated by reaction with 20 mM EDC (N-(3-Dimethylaminopropyl)-N′-ethylcarbodiimide hydrochloride) (FortéBio, cat. no. 18-1033) and 10 mM s-NHS (N-hydroxysulfosuccinimide sodium salt) (FortéBio, cat. no. 18-1067) for 300 s. The activated sensors were loaded with 10 μg/mL recombinant hIgG1 Fc-tagged cynomolgus monkey B7H4 (Creative BioMart, cat. no. VTCN1-1517R) in 10 mM Sodium Acetate pH 4.0 (FortéBio, cat. no. 18-1068) for 600 s and quenched with 1 M ethanolamine pH 8.5 (FortéBio, cat. no. 18-1071) for 300 s. […] A molecular mass of 150 kDa of the antibodies was used for calculations. For each antibody a reference sensor was used, which was incubated with Sample Diluent instead of antibody.
(§1) Data were acquired using Data Acquisition Software v9.0.0.49d (FortéBio) and analyzed with Data Analysis Software v9.0.0.12 (FortéBio). Data traces were corrected per antibody by subtraction of the reference sensor. The Y-axis was aligned to the last 10 s of the baseline, Interstep Correction alignment to dissociation and Savitzky-Golay filtering were applied. Data traces with a response<0.05 nm were excluded from analysis. The data was fitted with the 1:1 Global Full fit model using a window of interest for the association and dissociation times set at 100 s and 200 s respectively.

B7H4-IgV/B7H3-IgC = molecular target: T2, B7H4-IgV/B7H3-IgC; experiment: flow cytometry, HEK cells transiently transfected with B7H4-IgV/B7H3-IgC, PE anti-human IgG F(ab')2 [panel B7H4-IgV/B7H3-IgC]
T2 construct: also called chimeric molecule with the IgV domain of B7H4 and the IgC domain of B7H3
T2 full-length chimeric protein on cells: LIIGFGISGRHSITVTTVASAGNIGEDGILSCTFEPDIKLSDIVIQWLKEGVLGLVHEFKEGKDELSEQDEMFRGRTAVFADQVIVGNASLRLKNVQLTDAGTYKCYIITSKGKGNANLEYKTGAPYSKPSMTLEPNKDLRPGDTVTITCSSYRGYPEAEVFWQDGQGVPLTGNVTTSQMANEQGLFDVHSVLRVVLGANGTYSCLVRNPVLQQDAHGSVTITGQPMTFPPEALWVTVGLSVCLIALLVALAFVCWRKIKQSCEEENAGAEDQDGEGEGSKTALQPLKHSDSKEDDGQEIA
Method: After washing twice in FACS buffer, cells were incubated with secondary antibody at 4° C. for 30 min. […] Next, cells were washed twice in FACS buffer, re-suspended in 20 μL FACS buffer and analyzed on an iQue Screener (Intellicyt Corporation, USA).
Further experiments were conducted to study the B7H4 domain specificity of the B7H4 antibodies in more detail, by analysis of full dose-response curves.

[2] = molecular target: T3, mouse B7H4 ECD-His (R&D Systems, cat. no. 2154-B7-050) (mouse, UniProt Q7TSP5 29-256); experiment: BLI (Octet HTX); antibody on anti-human IgG Fc capture sensor, mouse B7H4 ECD-His in solution; 1st experiment
T3 construct: Bought ECD-His protein (26.6 kDa); also called mouse B7H4 extracellular domain
T3 sequence: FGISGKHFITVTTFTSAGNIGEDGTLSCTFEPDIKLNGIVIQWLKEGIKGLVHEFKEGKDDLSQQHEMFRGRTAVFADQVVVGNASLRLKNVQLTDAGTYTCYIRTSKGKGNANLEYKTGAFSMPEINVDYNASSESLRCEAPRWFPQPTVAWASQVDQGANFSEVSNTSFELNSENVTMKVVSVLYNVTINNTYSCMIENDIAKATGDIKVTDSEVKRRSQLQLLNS
Method: (§2) Target binding affinity of B7H4 antibodies was determined by label-free biolayer interferometry (BLI) on an Octet HTX instrument (FortéBio). Experiments were carried out while shaking at 1,000 RPM at 30° C. […] Anti-Human IgG Fc Capture (AHC) biosensors (FortéBio, cat. no. 18-5060) were pre-conditioned by exposure to 10 mM glycine (Sigma-Aldrich, cat. no. 15527) buffer pH 1.7 for 5 s, followed by neutralization in Sample Diluent (FortéBio, cat. no. 18-1048) for 5 s; both steps were repeated 2 times. Next, AHC sensors were loaded with antibody (1 μg/mL in Sample diluent) for 600 s. […] The theoretical molecular mass of human B7H4 and mouse B7H4 (as ECD-His tagged molecules) based on their amino acid sequences (26.8 kDa and 26.6 kDa respectively) were used for calculations. For each antibody a reference sensor was used, which was incubated with Sample Diluent instead of antigen. AHC sensors were regenerated by exposure to 10 mM glycine buffer pH 1.7 for 5 s, followed by neutralization in Sample Diluent for 5 s; both steps were repeated twice. Subsequently sensors were loaded again with antibody for the next cycle of kinetics measurements.
as §1, with “300” for “100”

[3] = molecular target: T4, rabbit (Oryctolagus cuniculus) B7H4, full length, on HEK-293F cells (rabbit, UniProt Q7Z7D3 25-282 (human entry)); experiment: flow cytometry, transiently transfected HEK-293F cells
T4 construct: Uniprot G1TQE8; also called rabbit B7H4
T4 chain: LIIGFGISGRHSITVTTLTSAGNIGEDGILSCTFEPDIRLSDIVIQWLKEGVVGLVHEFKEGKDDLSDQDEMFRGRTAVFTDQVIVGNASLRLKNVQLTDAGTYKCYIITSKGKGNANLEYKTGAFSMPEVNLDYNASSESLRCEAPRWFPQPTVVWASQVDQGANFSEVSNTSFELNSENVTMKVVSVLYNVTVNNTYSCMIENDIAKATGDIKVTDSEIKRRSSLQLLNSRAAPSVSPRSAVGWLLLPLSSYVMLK

[4] = molecular target: T3, mouse B7H4 ECD-His (R&D Systems, cat. …); experiment: BLI (Octet HTX); antibody on anti-human IgG Fc capture sensor, mouse B7H4 ECD-His in solution; 2nd experiment
Method: as §2
as §1, with “300” for “100”

[5] = molecular target: T5, rat (Rattus norvegicus) B7H4, full length, on HEK-293F cells (rat, UniProt Q501W4 25-257); experiment: flow cytometry, HEK-293F cells transfected with rat B7H4 [panel Rat B7H4]
T5 construct: Uniprot Q501W4; also called rat B7H4
T5 sequence: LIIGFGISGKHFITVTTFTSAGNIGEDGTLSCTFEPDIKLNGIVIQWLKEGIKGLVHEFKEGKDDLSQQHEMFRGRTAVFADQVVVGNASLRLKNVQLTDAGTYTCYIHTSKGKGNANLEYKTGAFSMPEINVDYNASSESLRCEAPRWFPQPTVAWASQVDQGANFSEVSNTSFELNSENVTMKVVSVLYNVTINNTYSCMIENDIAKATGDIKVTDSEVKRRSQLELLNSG
Method: (§3) Cells (3×10⁴ cells/well) were incubated in polystyrene 96-well round-bottom plates (Greiner bio-one, cat. no. 650180) with serial dilutions of antibodies (ranging from 0.000458 to 30 μg/mL in 4-fold dilution steps) in 100 μL PBS/0.1% BSA/0.02% azide (staining buffer) at 4° C. for 30 min. Experiments were performed in technical duplicate. After washing twice in staining buffer, cells were incubated in 50 μL secondary antibody at 4° C. for 30 min. As a secondary antibody, R-Phycoerythrin (PE)-conjugated goat-anti-human IgG F(ab′)₂ (1:500 in FACS buffer; Jackson ImmunoResearch Laboratories, Inc., West Grove, PA, cat. no. 109-116-098), was used. Cells were washed twice in staining buffer, re-suspended in 30 μL FACS buffer containing Topro-3 (1:10,000 dilution) and analyzed on an iQue Screener (Intellicyt Corporation, USA). Binding curves were analyzed using non-linear regression (sigmoidal dose-response with variable slope) using GraphPad Prism V7.02 software (GraphPad Software, San Diego, CA, USA).

[6] = molecular target: T6, pig (Sus scrofa) B7H4, full length, on HEK-293F cells (pig, UniProt Q7Z7D3 26-282 (human entry)); experiment: flow cytometry, HEK-293F cells transfected with pig B7H4 [panel Pig B7H4]
T6 construct: Uniprot F1SAY4; also called pig B7H4
T6 chain: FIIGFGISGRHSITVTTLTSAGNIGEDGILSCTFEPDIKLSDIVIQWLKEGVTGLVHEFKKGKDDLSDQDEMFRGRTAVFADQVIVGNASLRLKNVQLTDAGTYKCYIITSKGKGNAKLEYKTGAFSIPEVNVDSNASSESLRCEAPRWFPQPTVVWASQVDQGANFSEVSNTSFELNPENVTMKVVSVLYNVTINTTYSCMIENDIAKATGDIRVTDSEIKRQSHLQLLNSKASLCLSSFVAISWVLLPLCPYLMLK
Method: as §3

B1: bsIgG1-huCD3-FEALxB7H4-C1-FEAR (bispecific antibody)
heavy 1: not shown
light 1: not shown
heavy 2: QVQLQQWGAGLLKPSETLSLTCAVYGGSFSGYYWSWIRQPPGKGLEWIGEINHSGSTNYNPSLKSRVTISIDTSKNQFSLKLTSVTAADTAVFYCARGLFNWNFDSWGQGTLVTVSSASTKGPSVFPLAPSSKSTSGGTAALGCLVKDYFPEPVTVSWNSGALTSGVHTFPAVLQSSGLYSLSSVVTVPSSSLGTQTYICNVNHKPSNTKVDKRVEPKSCDKTHTCPPCPAPEFEGGPSVFLFPPKPKDTLMISRTPEVTCVVVAVSHEDPEVKFNWYVDGVEVHNAKTKPREEQYNSTYRVVSVLTVLHQDWLNGKEYKCKVSNKALPAPIEKTISKAKGQPREPQVYTLPPSREEMTKNQVSLTCLVKGFYPSDIAVEWESNGQPENNYKTTPPVLDSDGSFFLYSRLTVDKSRWQQGNVFSCSVMHEALHNHYTQKSLSLSPGK
light 2: DIQMTQSPSSLSASVGDRVTITCRASQGIRNDLGWYQQKPGKAPKRLIYGASSLQSGVPSRFSGSGSGTEFTLTISSLQPEDFATYYCLQHNSYPRTFGQGTTVEIKRTVAAPSVFIFPPSDEQLKSGTASVVCLLNNFYPREAKVQWKVDNALQSGNSQESVTEQDSKDSTYSLSSTLTLSKADYEKHKVYACEVTHQGLSSPVTKSFNRGEC
notes: also called bslgG1-huCD3-FEALxB7H4-C1-FEAR
[1]
  Kd: 5.1 nM
  koff: 0.0014 s⁻¹
  kon: 270000 M⁻¹ s⁻¹

B2: bsIgG1-huCD3-H101G-FEALxB7H4-C2-FEAR (bispecific antibody)
heavy 1: not shown
light 1: not shown
heavy 2: EVQLVQSGAEVKKPGASVKVSCKASGYTFTSYWIGWVRQAPGQGLEWIGDIYPGGGYTNYNEKFKGRVTITRDTSTSTAYLELSSLRSEDTAVYYCARLDGSSYRGAMDSWGQGTLVTVSSASTKGPSVFPLAPSSKSTSGGTAALGCLVKDYFPEPVTVSWNSGALTSGVHTFPAVLQSSGLYSLSSVVTVPSSSLGTQTYICNVNHKPSNTKVDKRVEPKSCDKTHTCPPCPAPEFEGGPSVFLFPPKPKDTLMISRTPEVTCVVVAVSHEDPEVKFNWYVDGVEVHNAKTKPREEQYNSTYRVVSVLTVLHQDWLNGKEYKCKVSNKALPAPIEKTISKAKGQPREPQVYTLPPSREEMTKNQVSLTCLVKGFYPSDIAVEWESNGQPENNYKTTPPVLDSDGSFFLYSRLTVDKSRWQQGNVFSCSVMHEALHNHYTQKSLSLSPGK
light 2: DIQMTQSPSSLSASVGDRVTITCKASQGFNKYVAWYQQKPGKAPKLLIYYTSTLQPGVPSRFSGSGSGRDYTLTISSLQPEDFATYYCLQYGNLLYAFGQGTKVEIKRTVAAPSVFIFPPSDEQLKSGTASVVCLLNNFYPREAKVQWKVDNALQSGNSQESVTEQDSKDSTYSLSSTLTLSKADYEKHKVYACEVTHQGLSSPVTKSFNRGEC
notes: also called bslgG1-huCD3-H101G-FEALxB7H4-C2-FEAR
B7H4-IgV/B7H3-IgC
  EC50 (read off the curve): ~2 mg/L

B3: IgG1-B7H4-C2-FEAR (antibody, V domains shown)
VH: EVQLVQSGAEVKKPGASVKVSCKASGYTFTSYWIGWVRQAPGQGLEWIGDIYPGGGYTNYNEKFKGRVTITRDTSTSTAYLELSSLRSEDTAVYYCARLDGSSYRGAMDSWGQGTLVTVSS
VL: DIQMTQSPSSLSASVGDRVTITCKASQGFNKYVAWYQQKPGKAPKLLIYYTSTLQPGVPSRFSGSGSGRDYTLTISSLQPEDFATYYCLQYGNLLYAFGQGTKVEIKR
notes: Full length IgG1 FEAR, kappa; variable domains from WO2014159835
[2]
  Kd: 24 nM
  koff: 0.00077 s⁻¹
  kon: 33000 M⁻¹ s⁻¹
[3]
  binding result: binds
[4]
  Kd: 2.1 nM
  koff: 0.00013 s⁻¹
  kon: 63000 M⁻¹ s⁻¹
[5]
  binding result: binds
[6]
  binding result: binds

B4: IgG1-B7H4-C3-FEAR (antibody, V domains shown)
VH: EVQLVQSGAEVKKPGASVKVSCKASGYTFTNFWIHWVRQAPGQGLEWIGEIDPSDSYTNYNQKFKGRVTITRDTSTSTAYLELSSLRSEDTAVYYCAREITTVDYWGQGTLVTVSS
VL: DIQMTQSPSSLSASVGDRVTITCSATSSISYMHWYQQKPGKAPKGWIYDTSKLAHGVPSRFSGSGSGTDFTLTISSLQPEDFATYYCHQRRSYPFTFGQGTKVEIKR
notes: as for B3
[6]
  binding result: no binding (tested: 30 µg/ml)
